Data taken from the supplement of paper PMC6757056.
± gives the standard deviation of the averaged measurements.

B1: library; a variant is named by its letters at N, in order (parent)
chain: GCUGUCACCGGUGUAUUACCCUAGUGGUCGACCGGUCUGAUGAGUCUNNNNNNAGACGAAACAGC

Key:
hypoxanthine [1] = variants of: B1; experiment: normalized RNA/DNA level with ligand (relative to sTRSVctl = 100) (log10 (% of sTRSVctl)); ligand: hypoxanthine (xanthine aptamer); higher = less ribozyme self-cleavage, higher mRNA level; conditions: ligand concentration (+) RNA-Seq: 5 mM, HEK293T, reporter: mCherry (pCS4076), ligand present: yes
How it was run: (§1)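 Ribozyme switch library plasmids linked to reporters were introduced into HEK293T cells at 4 µg per 6-well well, with ligand, if any, added 1 h before. Total RNA was extracted with EDTA 72 h later, reverse-transcribed, amplified, barcoded and sequenced. RNA level was computed from RNA over DNA reads relative to a spiked-in non-cleaving sequence or the top sequences, then scaled and log-transformed. The top set was 25 sequences, values were ×100 and log10, and the cutoff was ≥100 DNA reads.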

hypoxanthine [2] = variants of: B1; experiment: normalized RNA/DNA level without ligand (relative to sTRSVctl = 100) (log10 (% of sTRSVctl)); ligand: hypoxanthine (xanthine aptamer); higher = less ribozyme self-cleavage, higher mRNA level; conditions: HEK293T, reporter: mCherry (pCS4076), ligand present: no
How it was run: as §1

Variant	normalized RNA/DNA level with ligand (log10) (hypoxanthine [1])	normalized RNA/DNA level without ligand (log10) (hypoxanthine [2])
AUCGGA	1.94 ± 0.044	1.74 ± 0.061
AUCGGU	1.91 ± 0.02	1.6043 ± 0.0014
AUCGGC	1.97 ± 0.099	1.86 ± 0.029
AUCGGG	1.889 ± 0.0042	1.52 ± 0.06
AUCCAC	1.95 ± 0.056	1.8068 ± 0.00014
UUCCUU	1.92 ± 0.081	1.891 ± 0.0051
UUCCUA	1.94 ± 0.016	1.89 ± 0.0066
UUCCUC	1.97 ± 0.038	2.04 ± 0.025
UUAGUC	1.98 ± 0.0064	1.976 ± 0.015
UUAGUA	1.939 ± 0.017	1.81 ± 0.039
UUAGUG	1.89 ± 0.048	1.67 ± 0.043
UUAGUU	1.952 ± 0.0013	1.85 ± 0.038
AUCCGU	1.96 ± 0.0099	1.91 ± 0.018
AUCCGG	1.954 ± 0.0038	1.7 ± 0.051
AUCUAG	1.91 ± 0.033	1.61 ± 0.019
AUCUAU	1.93 ± 0.032	1.83 ± 0.074
AUCUAC	1.9 ± 0.12	1.855 ± 0.013
AUAUAU	1.9 ± 0.028	1.79 ± 0.045
CUCCAC	1.92 ± 0.02	1.92 ± 0.036
CUCCAG	1.89 ± 0.068	1.73 ± 0.057
CUCCAA	1.91 ± 0.047	1.869 ± 0.01
GUCCUU	1.94 ± 0.11	1.95 ± 0.017
GUCCUG	1.88 ± 0.024	1.52 ± 0.022

Variant	normalized RNA/DNA level with ligand (log10) (hypoxanthine [1])	normalized RNA/DNA level without ligand (log10) (hypoxanthine [2])
GUCCUA	1.95 ± 0.069	1.934 ± 0.015
GUCCUC	1.9 ± 0.016	1.93 ± 0.057
GUAUCG	1.9 ± 0.042	1.57 ± 0.017
GUAUCA	1.96 ± 0.049	1.88 ± 0.02
GUAUCC	1.96 ± 0.025	1.86 ± 0.043
AUCGAA	1.863 ± 0.01	1.73 ± 0.04
UUAUAU	1.93 ± 0.027	1.85 ± 0.019
UUAUAG	1.89 ± 0.019	1.67 ± 0.04
UUAUAA	1.92 ± 0.0059	1.76 ± 0.041
AUAUUA	1.868 ± 0.0053	1.82 ± 0.028
AUAUUU	1.903 ± 0.0024	1.89 ± 0.057
CUAUCC	1.93 ± 0.062	1.92 ± 0.049
CUAUCU	1.9 ± 0.075	1.89 ± 0.042
CUAUCA	1.92 ± 0.041	1.86 ± 0.029
CUAUCG	1.956 ± 0.016	1.94 ± 0.033
AUCAUG	1.89 ± 0.021	1.63 ± 0.062
CUCGUA	1.91 ± 0.02	1.907 ± 0.015
CUCGUG	1.94 ± 0.028	1.81 ± 0.025
CUCGUU	1.94 ± 0.019	2.03 ± 0.063
AUAGUU	1.9009 ± 0.0014	1.84 ± 0.055
AUAGUC	1.931 ± 0.016	1.923 ± 0.019
CUCGAG	1.9019 ± 0.00066	1.6 ± 0.031
CUCGAC	1.96 ± 0.023	1.808 ± 0.017

Variant	normalized RNA/DNA level with ligand (log10) (hypoxanthine [1])	normalized RNA/DNA level without ligand (log10) (hypoxanthine [2])
GUAGCA	1.8839 ± 9.6e-05	1.8 ± 0.023
GUAGCG	1.87 ± 0.02	1.535 ± 0.0049
UUAUGU	1.92 ± 0.021	1.794 ± 0.01
UUAUGC	1.94 ± 0.039	1.874 ± 0.0042
UUACGG	1.94 ± 0.04	1.85 ± 0.029
UUACGC	1.94 ± 0.029	1.81 ± 0.054
GUCAUA	1.957 ± 0.013	1.806 ± 0.013
GUCAUU	1.97 ± 0.056	1.916 ± 0.015
AUAUGC	1.94 ± 0.0047	1.76 ± 0.018
GUAUAA	1.87 ± 0.052	1.78 ± 0.02
GUAGAU	1.87 ± 0.092	1.758 ± 0.00084
GUAGAC	1.89 ± 0.041	1.69 ± 0.025
CUAUUU	2 ± 0.021	1.93 ± 0.053
UUCCCC	1.93 ± 0.043	1.8846 ± 0.0013
UUCCCU	2 ± 0.052	1.935 ± 0.0058
UUCCCA	1.92 ± 0.032	1.91 ± 0.037
GUCUAU	1.94 ± 0.059	1.82 ± 0.026
GUCUAC	1.94 ± 0.043	1.8 ± 0.018
CUCACA	1.911 ± 0.016	1.83 ± 0.021
CUCACG	1.93 ± 0.024	1.913 ± 0.0027
UUAUCG	1.905 ± 0.01	1.78 ± 0.084
UUAUCC	1.957 ± 0.016	1.929 ± 0.013
UUAUCA	1.953 ± 0.0031	1.83 ± 0.024

Variant	normalized RNA/DNA level with ligand (log10) (hypoxanthine [1])	normalized RNA/DNA level without ligand (log10) (hypoxanthine [2])
UUAUCU	1.977 ± 0.014	1.86 ± 0.026
UUCCGU	2 ± 0.039	1.85 ± 0.025
UUCCGG	1.98 ± 0.024	1.903 ± 0.011
UUCCGA	1.97 ± 0.029	1.94 ± 0.03
UUCCGC	2.011 ± 0.003	1.89 ± 0.035
GUCAAC	1.95 ± 0.02	1.748 ± 0.0031
GUCAAU	1.925 ± 0.015	1.8 ± 0.054
GUCCAU	1.95 ± 0.028	1.852 ± 0.0035
CUCAAA	1.919 ± 0.0021	1.785 ± 0.013
CUCAAC	1.98 ± 0.052	1.926 ± 0.0052
CUCAAG	1.88 ± 0.0045	1.742 ± 0.0067
CUCAAU	1.92 ± 0.036	1.792 ± 0.0044
GUCACG	1.9 ± 0.025	1.54 ± 0.055
GUCACU	1.977 ± 0.014	1.91 ± 0.041
GUCACA	1.917 ± 0.002	1.81 ± 0.022
GUCACC	1.92 ± 0.059	1.9 ± 0.079
AUAGCC	1.936 ± 0.0032	1.82 ± 0.028
AUAGCU	1.935 ± 0.018	1.83 ± 0.005
UUAGAG	1.832 ± 0.0063	1.556 ± 0.011
UUAGAU	1.9278 ± 0.00084	1.766 ± 0.0096
UUAGAC	1.9 ± 0.083	1.82 ± 0.022
AUCUCA	1.96 ± 0.071	1.89 ± 0.043
UUCGCC	1.95 ± 0.046	1.856 ± 0.015

Variant	normalized RNA/DNA level with ligand (log10) (hypoxanthine [1])	normalized RNA/DNA level without ligand (log10) (hypoxanthine [2])
UUCGCG	1.9036 ± 0.0015	1.84 ± 0.044
UUCGCU	1.983 ± 0.015	1.87 ± 0.049
AUCGCU	1.91 ± 0.024	1.84 ± 0.028
AUCGCA	1.9253 ± 0.0018	1.77 ± 0.028
AUCGCG	1.863 ± 0.0079	1.409 ± 0.0031
CUCUAG	1.9 ± 0.0079	1.78 ± 0.011
CUCUAU	2.03 ± 0.035	1.848 ± 0.0086
CUCUAA	1.93 ± 0.051	1.8 ± 0.054
CUCUAC	1.966 ± 0.013	1.87 ± 0.019
UUCACU	1.956 ± 0.0023	1.76 ± 0.039
UUCACC	1.984 ± 0.015	2 ± 0.05
UUCACG	1.93 ± 0.036	1.8 ± 0.031
AUCCUA	1.94 ± 0.062	1.9 ± 0.043
AUCCUU	1.98 ± 0.027	1.91 ± 0.055
UUCGGA	1.95 ± 0.034	1.75 ± 0.044
UUCGGC	1.95 ± 0.098	1.89 ± 0.025
UUCGGG	1.95 ± 0.044	1.73 ± 0.027
GUCCGC	1.9 ± 0.055	1.85 ± 0.024
GUCCGA	1.9508 ± 0.00054	1.732 ± 0.013
GUCCGU	1.891 ± 0.0098	1.86 ± 0.041
CUAUGA	1.95 ± 0.036	1.85 ± 0.042
CUAUGC	1.99 ± 0.044	1.88 ± 0.076
CUAUGU	1.952 ± 0.0085	1.88 ± 0.019
